Article PMC11497598

Columns and labels:
Assay in all cases: analytical SEC
Conditions in all cases: cell culture supernatant of Expi293F cells; parent: est. 72; read off a plot
[1] = biological target: B/Iowa/06/2017 HA HA1 H311M
[2] = biological target: B/Iowa/06/2017 HA HA2 Q64W
[3] = biological target: B/Iowa/06/2017 HA HA2 H22Y
[4] = biological target: B/Iowa/06/2017 HA HA1 314M
[5] = biological target: B/Iowa/06/2017 HA HA1 K209I
[6] = biological target: B/Iowa/06/2017 HA HA1 T218V
[7] = biological target: B/Iowa/06/2017 HA HA1 K209L
[8] = biological target: B/Iowa/06/2017 HA HA2 S110W
[9] = biological target: B/Iowa/06/2017 HA HA2 111Q
[10] = biological target: B/Iowa/06/2017 HA HA2 S110R
[11] = biological target: B/Iowa/06/2017 HA HA1 K209T
[12] = biological target: B/Iowa/06/2017 HA HA2 91I
[13] = biological target: B/Iowa/06/2017 HA HA2 E113F
[14] = biological target: B/Iowa/06/2017 HA HA2 H114Y
[15] = biological target: B/Iowa/06/2017 HA HA2 E113L
[16] = biological target: B/Iowa/06/2017 HA HA2 H114I
[17] = biological target: B/Iowa/06/2017 HA HA1 220N
[18] = biological target: B/Iowa/06/2017 HA HA2 Q64P
[19] = biological target: B/Iowa/06/2017 HA HA2 Q64Y
[20] = biological target: B/Iowa/06/2017 HA HA2 15P
[21] = biological target: B/Iowa/06/2017 HA HA2 30W
[22] = biological target: B/Iowa/06/2017 HA HA2 S40A
[23] = biological target: B/Iowa/06/2017 HA HA1 K209Q
[24] = biological target: B/Iowa/06/2017 HA HA1 T211V
[25] = biological target: B/Iowa/06/2017 HA HA1 T218N
[26] = biological target: B/Iowa/06/2017 HA HA2 E113Q
[27] = biological target: B/Iowa/06/2017 HA HA1 213A
[28] = biological target: B/Iowa/06/2017 HA HA1 V217W
[29] = biological target: B/Iowa/06/2017 HA HA2 E113W
[30] = biological target: B/Iowa/06/2017 HA HA1 259V
[31] = biological target: B/Iowa/06/2017 HA HA2 H114Q
[32] = biological target: B/Iowa/06/2017 HA HA2 116W
[33] = biological target: B/Iowa/06/2017 HA HA2 H114W
[34] = biological target: B/Iowa/06/2017 HA HA2 18P
[35] = biological target: B/Iowa/06/2017 HA HA1 V217K
[36] = biological target: B/Iowa/06/2017 HA HA2 116R
[37] = biological target: B/Iowa/06/2017 HA HA2 93A
[38] = biological target: B/Iowa/06/2017 HA HA1 K209R
[39] = biological target: B/Iowa/06/2017 HA HA2 Q64F
[40] = biological target: B/Iowa/06/2017 HA HA2 11P
[41] = biological target: B/Iowa/06/2017 HA HA1 220Q
[42] = biological target: B/Iowa/06/2017 HA HA2 67T
[43] = biological target: B/Iowa/06/2017 HA HA1 K209F
[44] = biological target: B/Iowa/06/2017 HA HA2 29P
[45] = biological target: B/Iowa/06/2017 HA HA2 G68L
[46] = biological target: B/Iowa/06/2017 HA HA1 220T
[47] = biological target: B/Iowa/06/2017 HA HA1 220F
[48] = biological target: B/Iowa/06/2017 HA HA2 D71P
[49] = biological target: B/Iowa/06/2017 HA HA2 G68Y
[50] = biological target: B/Iowa/06/2017 HA HA1 K209Y

## wild-type soluble hemagglutinin (HA) of influenza B/Iowa/06/2017 HA1:H311M
[1]
  other: trimer fraction: 68%

## wild-type soluble hemagglutinin (HA) of influenza B/Iowa/06/2017 HA2:Q64W
[2]
  other: trimer fraction: 93%

## wild-type soluble hemagglutinin (HA) of influenza B/Iowa/06/2017 HA2:H22Y
[3]
  other: trimer fraction: 85%

## wild-type soluble hemagglutinin (HA) of influenza B/Iowa/06/2017 HA1:314M
[4]
  other: trimer fraction: 49%

## wild-type soluble hemagglutinin (HA) of influenza B/Iowa/06/2017 HA1:K209I
[5]
  other: trimer fraction: 93%

## wild-type soluble hemagglutinin (HA) of influenza B/Iowa/06/2017 HA1:T218V
[6]
  other: trimer fraction: 69%

## wild-type soluble hemagglutinin (HA) of influenza B/Iowa/06/2017 HA1:K209L
[7]
  other: trimer fraction: 96%

## wild-type soluble hemagglutinin (HA) of influenza B/Iowa/06/2017 HA2:S110W
[8]
  other: trimer fraction: 51%

## wild-type soluble hemagglutinin (HA) of influenza B/Iowa/06/2017 HA2:111Q
[9]
  other: trimer fraction: 84%

## wild-type soluble hemagglutinin (HA) of influenza B/Iowa/06/2017 HA2:S110R
[10]
  other: trimer fraction: 86%

## wild-type soluble hemagglutinin (HA) of influenza B/Iowa/06/2017 HA1:K209T
[11]
  other: trimer fraction: 98%

## wild-type soluble hemagglutinin (HA) of influenza B/Iowa/06/2017 HA2:91I
[12]
  other: trimer fraction: 56%

## wild-type soluble hemagglutinin (HA) of influenza B/Iowa/06/2017 HA2:E113F
[13]
  other: trimer fraction: 98%

## wild-type soluble hemagglutinin (HA) of influenza B/Iowa/06/2017 HA2:H114Y
[14]
  other: trimer fraction: 65%

## wild-type soluble hemagglutinin (HA) of influenza B/Iowa/06/2017 HA2:E113L
[15]
  other: trimer fraction: 97%

## wild-type soluble hemagglutinin (HA) of influenza B/Iowa/06/2017 HA2:H114I
[16]
  other: trimer fraction: 55%

## wild-type soluble hemagglutinin (HA) of influenza B/Iowa/06/2017 HA1:220N
[17]
  other: trimer fraction: 71%

## wild-type soluble hemagglutinin (HA) of influenza B/Iowa/06/2017 HA2:Q64P
[18]
  other: trimer fraction: 65%

## wild-type soluble hemagglutinin (HA) of influenza B/Iowa/06/2017 HA2:Q64Y
[19]
  other: trimer fraction: 98%

## wild-type soluble hemagglutinin (HA) of influenza B/Iowa/06/2017 HA2:15P
[20]
  other: trimer fraction: 69%

## wild-type soluble hemagglutinin (HA) of influenza B/Iowa/06/2017 HA2:30W
[21]
  other: trimer fraction: 69%

## wild-type soluble hemagglutinin (HA) of influenza B/Iowa/06/2017 HA2:S40A
[22]
  other: trimer fraction: 52%

## wild-type soluble hemagglutinin (HA) of influenza B/Iowa/06/2017 HA1:K209Q
[23]
  other: trimer fraction: 98%

## wild-type soluble hemagglutinin (HA) of influenza B/Iowa/06/2017 HA1:T211V
[24]
  other: trimer fraction: 78%

## wild-type soluble hemagglutinin (HA) of influenza B/Iowa/06/2017 HA1:T218N
[25]
  other: trimer fraction: 89%

## wild-type soluble hemagglutinin (HA) of influenza B/Iowa/06/2017 HA2:E113Q
[26]
  other: trimer fraction: 97%

## wild-type soluble hemagglutinin (HA) of influenza B/Iowa/06/2017 HA1:213A
[27]
  other: trimer fraction: 82%

## wild-type soluble hemagglutinin (HA) of influenza B/Iowa/06/2017 HA1:V217W
[28]
  other: trimer fraction: 96%

## wild-type soluble hemagglutinin (HA) of influenza B/Iowa/06/2017 HA2:E113W
[29]
  other: trimer fraction: 100%

## wild-type soluble hemagglutinin (HA) of influenza B/Iowa/06/2017 HA1:259V
[30]
  other: trimer fraction: 92%

## wild-type soluble hemagglutinin (HA) of influenza B/Iowa/06/2017 HA2:H114Q
[31]
  other: trimer fraction: 65%

## wild-type soluble hemagglutinin (HA) of influenza B/Iowa/06/2017 HA2:116W
[32]
  other: trimer fraction: 90%

## wild-type soluble hemagglutinin (HA) of influenza B/Iowa/06/2017 HA2:H114W
[33]
  other: trimer fraction: 43%

## wild-type soluble hemagglutinin (HA) of influenza B/Iowa/06/2017 HA2:18P
[34]
  other: trimer fraction: 57%

## wild-type soluble hemagglutinin (HA) of influenza B/Iowa/06/2017 HA1:V217K
[35]
  other: trimer fraction: 91%

## wild-type soluble hemagglutinin (HA) of influenza B/Iowa/06/2017 HA2:116R
[36]
  other: trimer fraction: 86%

## wild-type soluble hemagglutinin (HA) of influenza B/Iowa/06/2017 HA2:93A
[37]
  other: trimer fraction: 87%

## wild-type soluble hemagglutinin (HA) of influenza B/Iowa/06/2017 HA1:K209R
[38]
  other: trimer fraction: 79%

## wild-type soluble hemagglutinin (HA) of influenza B/Iowa/06/2017 HA2:Q64F
[39]
  other: trimer fraction: 96%

## wild-type soluble hemagglutinin (HA) of influenza B/Iowa/06/2017 HA2:11P
[40]
  other: trimer fraction: 76%

## wild-type soluble hemagglutinin (HA) of influenza B/Iowa/06/2017 HA1:220Q
[41]
  other: trimer fraction: 62%

## wild-type soluble hemagglutinin (HA) of influenza B/Iowa/06/2017 HA2:67T
[42]
  other: trimer fraction: 77%

## wild-type soluble hemagglutinin (HA) of influenza B/Iowa/06/2017 HA1:K209F
[43]
  other: trimer fraction: 96%

## wild-type soluble hemagglutinin (HA) of influenza B/Iowa/06/2017 HA2:29P
[44]
  other: trimer fraction: 77%

## wild-type soluble hemagglutinin (HA) of influenza B/Iowa/06/2017 HA2:G68L
[45]
  other: trimer fraction: 97%

## wild-type soluble hemagglutinin (HA) of influenza B/Iowa/06/2017 HA1:220T
[46]
  other: trimer fraction: 79%

## wild-type soluble hemagglutinin (HA) of influenza B/Iowa/06/2017 HA1:220F
[47]
  other: trimer fraction: 85%

## wild-type soluble hemagglutinin (HA) of influenza B/Iowa/06/2017 HA2:D71P
[48]
  other: trimer fraction: 88%

## wild-type soluble hemagglutinin (HA) of influenza B/Iowa/06/2017 HA2:G68Y
[49]
  other: trimer fraction: 96%

## wild-type soluble hemagglutinin (HA) of influenza B/Iowa/06/2017 HA1:K209Y
[50]
  other: trimer fraction: 92%
